Experimental data reported in patent US20150344570A1 (published 2015).

T1: FcγRIIa R (human, UniProt P12318 34-217)
T1 construct: extracellular domain; also called FcgRIIa R type; 2aR
T1 sequence (looked up): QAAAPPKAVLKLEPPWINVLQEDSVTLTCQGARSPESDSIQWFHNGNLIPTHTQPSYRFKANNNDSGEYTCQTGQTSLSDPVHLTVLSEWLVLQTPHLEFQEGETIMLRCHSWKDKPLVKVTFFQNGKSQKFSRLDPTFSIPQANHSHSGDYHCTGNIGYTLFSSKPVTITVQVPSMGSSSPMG


molecular target: T1, FcγRIIa R; assay: SPR (Biacore), captured antibody, FcγR as analyte; relative binding activity

Binder	Ho/Con_2aR
GpH7-B3 variant P238_03V/GpL16-k0 (antibody, human IgG1, kappa, also called Ho Ab P238_03V) heavy: not shown light: DIVMTQSPLSLPVTPGEPASISCQASESLVHSNRNTYLHWYLQKPGQSPQLLIYKVSNRFSGVPDRFSGSGSGTDFTLKISRVEAEDVGVYYCSQNTHVPPTFGQGTKVEIERTVAAPSVFIFPPSDEQLKSGTASVVCLLNNFYPREAKVQWKVDNALQSGNSQESVTEQDSKDSTYSLSSTLTLSKADYEKHKVYACEVTHQGLSSPVTKSFNRGEC	116 % (GpH7-B3/GpL16-k0 = 100)
GpH7-B3 variant P238_19Q/GpL16-k0 (antibody, human IgG1, kappa, also called Ho Ab P238_19Q) heavy: not shown light: DIVMTQSPLSLPVTPGEPASISCQASESLVHSNRNTYLHWYLQKPGQSPQLLIYKVSNRFSGVPDRFSGSGSGTDFTLKISRVEAEDVGVYYCSQNTHVPPTFGQGTKVEIERTVAAPSVFIFPPSDEQLKSGTASVVCLLNNFYPREAKVQWKVDNALQSGNSQESVTEQDSKDSTYSLSSTLTLSKADYEKHKVYACEVTHQGLSSPVTKSFNRGEC	19.4 % (GpH7-B3/GpL16-k0 = 100)
GpH7-B3 variant P271_09D/GpL16-k0 (antibody, human IgG1, kappa, also called Ho Ab P271_09D) heavy: not shown light: DIVMTQSPLSLPVTPGEPASISCQASESLVHSNRNTYLHWYLQKPGQSPQLLIYKVSNRFSGVPDRFSGSGSGTDFTLKISRVEAEDVGVYYCSQNTHVPPTFGQGTKVEIERTVAAPSVFIFPPSDEQLKSGTASVVCLLNNFYPREAKVQWKVDNALQSGNSQESVTEQDSKDSTYSLSSTLTLSKADYEKHKVYACEVTHQGLSSPVTKSFNRGEC	92.4 % (GpH7-B3/GpL16-k0 = 100)
GpH7-B3 variant P238_10E/GpL16-k0 (antibody, human IgG1, kappa, also called Ho Ab P238_10E) heavy: not shown light: DIVMTQSPLSLPVTPGEPASISCQASESLVHSNRNTYLHWYLQKPGQSPQLLIYKVSNRFSGVPDRFSGSGSGTDFTLKISRVEAEDVGVYYCSQNTHVPPTFGQGTKVEIERTVAAPSVFIFPPSDEQLKSGTASVVCLLNNFYPREAKVQWKVDNALQSGNSQESVTEQDSKDSTYSLSSTLTLSKADYEKHKVYACEVTHQGLSSPVTKSFNRGEC	21.4 % (GpH7-B3/GpL16-k0 = 100)
GpH7-B3 variant N325_14T/GpL16-k0 (antibody, human IgG1, kappa, also called Ho Ab N325_14T) heavy: not shown light: DIVMTQSPLSLPVTPGEPASISCQASESLVHSNRNTYLHWYLQKPGQSPQLLIYKVSNRFSGVPDRFSGSGSGTDFTLKISRVEAEDVGVYYCSQNTHVPPTFGQGTKVEIERTVAAPSVFIFPPSDEQLKSGTASVVCLLNNFYPREAKVQWKVDNALQSGNSQESVTEQDSKDSTYSLSSTLTLSKADYEKHKVYACEVTHQGLSSPVTKSFNRGEC	60.2 % (GpH7-B3/GpL16-k0 = 100)
GpH7-B3 variant N325_13S/GpL16-k0 (antibody, human IgG1, kappa, also called Ho Ab N325_13S) heavy: not shown light: DIVMTQSPLSLPVTPGEPASISCQASESLVHSNRNTYLHWYLQKPGQSPQLLIYKVSNRFSGVPDRFSGSGSGTDFTLKISRVEAEDVGVYYCSQNTHVPPTFGQGTKVEIERTVAAPSVFIFPPSDEQLKSGTASVVCLLNNFYPREAKVQWKVDNALQSGNSQESVTEQDSKDSTYSLSSTLTLSKADYEKHKVYACEVTHQGLSSPVTKSFNRGEC	126 % (GpH7-B3/GpL16-k0 = 100)
GpH7-B3 variant P238_09D/GpL16-k0 (antibody, human IgG1, kappa, also called Ho Ab P238_09D) heavy: not shown light: DIVMTQSPLSLPVTPGEPASISCQASESLVHSNRNTYLHWYLQKPGQSPQLLIYKVSNRFSGVPDRFSGSGSGTDFTLKISRVEAEDVGVYYCSQNTHVPPTFGQGTKVEIERTVAAPSVFIFPPSDEQLKSGTASVVCLLNNFYPREAKVQWKVDNALQSGNSQESVTEQDSKDSTYSLSSTLTLSKADYEKHKVYACEVTHQGLSSPVTKSFNRGEC	13 % (GpH7-B3/GpL16-k0 = 100)
GpH7-B3 variant N325_15Y/GpL16-k0 (antibody, human IgG1, kappa, also called Ho Ab N325_15Y) heavy: not shown light: DIVMTQSPLSLPVTPGEPASISCQASESLVHSNRNTYLHWYLQKPGQSPQLLIYKVSNRFSGVPDRFSGSGSGTDFTLKISRVEAEDVGVYYCSQNTHVPPTFGQGTKVEIERTVAAPSVFIFPPSDEQLKSGTASVVCLLNNFYPREAKVQWKVDNALQSGNSQESVTEQDSKDSTYSLSSTLTLSKADYEKHKVYACEVTHQGLSSPVTKSFNRGEC	42.6 % (GpH7-B3/GpL16-k0 = 100)
GpH7-B3 variant N325_20W/GpL16-k0 (antibody, human IgG1, kappa, also called Ho Ab N325_20W) heavy: not shown light: DIVMTQSPLSLPVTPGEPASISCQASESLVHSNRNTYLHWYLQKPGQSPQLLIYKVSNRFSGVPDRFSGSGSGTDFTLKISRVEAEDVGVYYCSQNTHVPPTFGQGTKVEIERTVAAPSVFIFPPSDEQLKSGTASVVCLLNNFYPREAKVQWKVDNALQSGNSQESVTEQDSKDSTYSLSSTLTLSKADYEKHKVYACEVTHQGLSSPVTKSFNRGEC	56 % (GpH7-B3/GpL16-k0 = 100)
GpH7-B3 variant P238_06M/GpL16-k0 (antibody, human IgG1, kappa, also called Ho Ab P238_06M) heavy: not shown light: DIVMTQSPLSLPVTPGEPASISCQASESLVHSNRNTYLHWYLQKPGQSPQLLIYKVSNRFSGVPDRFSGSGSGTDFTLKISRVEAEDVGVYYCSQNTHVPPTFGQGTKVEIERTVAAPSVFIFPPSDEQLKSGTASVVCLLNNFYPREAKVQWKVDNALQSGNSQESVTEQDSKDSTYSLSSTLTLSKADYEKHKVYACEVTHQGLSSPVTKSFNRGEC	88.9 % (GpH7-B3/GpL16-k0 = 100)

More lines, now with the values ahead:

Ho/Con_2aR	Binder
49.9 % (GpH7-B3/GpL16-k0 = 100)	GpH7-B3 variant N325_10E/GpL16-k0 (antibody, human IgG1, kappa, also called Ho Ab N325_10E) heavy: not shown light: DIVMTQSPLSLPVTPGEPASISCQASESLVHSNRNTYLHWYLQKPGQSPQLLIYKVSNRFSGVPDRFSGSGSGTDFTLKISRVEAEDVGVYYCSQNTHVPPTFGQGTKVEIERTVAAPSVFIFPPSDEQLKSGTASVVCLLNNFYPREAKVQWKVDNALQSGNSQESVTEQDSKDSTYSLSSTLTLSKADYEKHKVYACEVTHQGLSSPVTKSFNRGEC
25.5 % (GpH7-B3/GpL16-k0 = 100)	GpH7-B3 variant P238_16H/GpL16-k0 (antibody, human IgG1, kappa, also called Ho Ab P238_16H) heavy: not shown light: DIVMTQSPLSLPVTPGEPASISCQASESLVHSNRNTYLHWYLQKPGQSPQLLIYKVSNRFSGVPDRFSGSGSGTDFTLKISRVEAEDVGVYYCSQNTHVPPTFGQGTKVEIERTVAAPSVFIFPPSDEQLKSGTASVVCLLNNFYPREAKVQWKVDNALQSGNSQESVTEQDSKDSTYSLSSTLTLSKADYEKHKVYACEVTHQGLSSPVTKSFNRGEC
25.7 % (GpH7-B3/GpL16-k0 = 100)	GpH7-B3 variant P238_20W/GpL16-k0 (antibody, human IgG1, kappa, also called Ho Ab P238_20W) heavy: not shown light: DIVMTQSPLSLPVTPGEPASISCQASESLVHSNRNTYLHWYLQKPGQSPQLLIYKVSNRFSGVPDRFSGSGSGTDFTLKISRVEAEDVGVYYCSQNTHVPPTFGQGTKVEIERTVAAPSVFIFPPSDEQLKSGTASVVCLLNNFYPREAKVQWKVDNALQSGNSQESVTEQDSKDSTYSLSSTLTLSKADYEKHKVYACEVTHQGLSSPVTKSFNRGEC
102 % (GpH7-B3/GpL16-k0 = 100)	GpH7-B3 variant P271_08L/GpL16-k0 (antibody, human IgG1, kappa, also called Ho Ab P271_08L) heavy: not shown light: DIVMTQSPLSLPVTPGEPASISCQASESLVHSNRNTYLHWYLQKPGQSPQLLIYKVSNRFSGVPDRFSGSGSGTDFTLKISRVEAEDVGVYYCSQNTHVPPTFGQGTKVEIERTVAAPSVFIFPPSDEQLKSGTASVVCLLNNFYPREAKVQWKVDNALQSGNSQESVTEQDSKDSTYSLSSTLTLSKADYEKHKVYACEVTHQGLSSPVTKSFNRGEC
146 % (GpH7-B3/GpL16-k0 = 100)	GpH7-B3 variant P238_04F/GpL16-k0 (antibody, human IgG1, kappa, also called Ho Ab P238_04F) heavy: not shown light: DIVMTQSPLSLPVTPGEPASISCQASESLVHSNRNTYLHWYLQKPGQSPQLLIYKVSNRFSGVPDRFSGSGSGTDFTLKISRVEAEDVGVYYCSQNTHVPPTFGQGTKVEIERTVAAPSVFIFPPSDEQLKSGTASVVCLLNNFYPREAKVQWKVDNALQSGNSQESVTEQDSKDSTYSLSSTLTLSKADYEKHKVYACEVTHQGLSSPVTKSFNRGEC
95.9 % (GpH7-B3/GpL16-k0 = 100)	GpH7-B3 variant P238_15Y/GpL16-k0 (antibody, human IgG1, kappa, also called Ho Ab P238_15Y) heavy: not shown light: DIVMTQSPLSLPVTPGEPASISCQASESLVHSNRNTYLHWYLQKPGQSPQLLIYKVSNRFSGVPDRFSGSGSGTDFTLKISRVEAEDVGVYYCSQNTHVPPTFGQGTKVEIERTVAAPSVFIFPPSDEQLKSGTASVVCLLNNFYPREAKVQWKVDNALQSGNSQESVTEQDSKDSTYSLSSTLTLSKADYEKHKVYACEVTHQGLSSPVTKSFNRGEC
